Read-outs that look alike come from different tables or passages of the source.
Columns and labels:
[1] = molecular target: T1, PIRB (UniProt P97484 25-642, limits assumed); assay: binding ELISA, column PIRB, negative control
T1 sequence (looked up): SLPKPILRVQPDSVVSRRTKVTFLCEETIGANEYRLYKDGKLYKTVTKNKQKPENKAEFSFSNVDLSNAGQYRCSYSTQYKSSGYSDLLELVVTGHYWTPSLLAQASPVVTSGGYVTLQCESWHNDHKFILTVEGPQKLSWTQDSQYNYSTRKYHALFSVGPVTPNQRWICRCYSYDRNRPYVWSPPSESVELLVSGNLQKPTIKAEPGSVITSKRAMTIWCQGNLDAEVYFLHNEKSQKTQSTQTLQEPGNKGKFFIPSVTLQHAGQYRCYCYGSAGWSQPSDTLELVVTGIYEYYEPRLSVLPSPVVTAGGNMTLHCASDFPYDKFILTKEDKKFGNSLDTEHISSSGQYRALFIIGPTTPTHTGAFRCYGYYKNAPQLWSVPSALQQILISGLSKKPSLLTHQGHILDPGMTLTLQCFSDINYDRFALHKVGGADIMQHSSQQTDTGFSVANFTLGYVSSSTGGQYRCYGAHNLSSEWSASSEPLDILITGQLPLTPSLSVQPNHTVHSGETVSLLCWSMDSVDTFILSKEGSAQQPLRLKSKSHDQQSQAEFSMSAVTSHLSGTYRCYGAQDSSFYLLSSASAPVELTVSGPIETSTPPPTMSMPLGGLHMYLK

[2] = molecular target: T2, recombinant ILT2 (human, UniProt Q8NHL6 24-461); assay: binding ELISA, hILT2-Fc, negative control
T2 construct: also called LILRB1; LIR1
T2 sequence (Q8NHL6 24-461 limits assumed): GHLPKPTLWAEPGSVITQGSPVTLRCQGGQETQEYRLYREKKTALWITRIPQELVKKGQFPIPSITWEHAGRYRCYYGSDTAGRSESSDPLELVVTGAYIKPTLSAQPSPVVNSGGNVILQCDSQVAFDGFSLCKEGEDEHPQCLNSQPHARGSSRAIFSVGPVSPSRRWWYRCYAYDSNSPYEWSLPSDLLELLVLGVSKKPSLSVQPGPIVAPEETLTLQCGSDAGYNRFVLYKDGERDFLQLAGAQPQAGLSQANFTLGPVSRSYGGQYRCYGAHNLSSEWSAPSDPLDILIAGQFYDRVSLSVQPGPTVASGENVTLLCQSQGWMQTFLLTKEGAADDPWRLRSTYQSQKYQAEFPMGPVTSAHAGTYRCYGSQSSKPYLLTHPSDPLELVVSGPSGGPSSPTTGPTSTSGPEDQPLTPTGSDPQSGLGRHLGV

[3] = molecular target: T3, ILT6 (UniProt Q8N6C8 24-439); assay: binding ELISA, column hILT6-His, negative control
T3 sequence (Q8N6C8 24-439 limits assumed): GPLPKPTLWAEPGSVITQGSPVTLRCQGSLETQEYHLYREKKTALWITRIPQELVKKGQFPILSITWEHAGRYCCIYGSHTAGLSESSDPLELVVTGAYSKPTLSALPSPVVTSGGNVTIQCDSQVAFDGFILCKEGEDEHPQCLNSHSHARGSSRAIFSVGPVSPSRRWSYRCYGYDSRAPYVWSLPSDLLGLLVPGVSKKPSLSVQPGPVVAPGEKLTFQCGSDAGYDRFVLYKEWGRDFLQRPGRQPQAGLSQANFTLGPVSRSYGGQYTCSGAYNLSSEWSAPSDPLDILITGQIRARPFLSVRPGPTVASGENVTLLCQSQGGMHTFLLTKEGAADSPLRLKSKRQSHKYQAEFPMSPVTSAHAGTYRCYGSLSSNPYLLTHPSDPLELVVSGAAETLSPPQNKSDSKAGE

[4] = molecular target: T4, LILRA1 (UniProt O75019 17-461, limits assumed); assay: binding ELISA, column hLILRA1-His, negative control
T4 sequence (O75019 17-461 limits assumed): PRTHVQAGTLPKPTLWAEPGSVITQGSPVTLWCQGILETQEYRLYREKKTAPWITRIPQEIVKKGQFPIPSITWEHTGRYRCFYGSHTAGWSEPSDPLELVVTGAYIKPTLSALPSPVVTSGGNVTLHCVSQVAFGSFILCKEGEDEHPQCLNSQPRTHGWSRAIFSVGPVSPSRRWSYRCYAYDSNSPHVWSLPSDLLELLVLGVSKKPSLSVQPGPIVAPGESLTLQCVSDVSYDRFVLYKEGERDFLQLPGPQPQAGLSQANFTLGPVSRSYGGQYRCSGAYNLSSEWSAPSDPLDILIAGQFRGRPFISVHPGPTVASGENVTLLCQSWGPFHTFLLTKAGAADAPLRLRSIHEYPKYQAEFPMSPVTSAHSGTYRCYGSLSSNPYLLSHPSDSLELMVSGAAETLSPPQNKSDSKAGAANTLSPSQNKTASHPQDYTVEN

[5] = molecular target: T2, recombinant ILT2; assay: binding ELISA, hILT2-Fc; positive control is GHI/75 by paragraph 227
[6] = molecular target: T5, ILT2/CD3z chimera on BW5417.3 cells (human; mouse, UniProt P24161 31-164, limits assumed); assay: flow cytometry titration on BW cells transfected with human ILT2, y axis FAB
T5 construct: domain: trans-membrane and cytoplasmic residues; Expressed on the surface of the mouse BW T cell line; also called BW-ILT2; BW/ILT2z
T5 sequence (P24161 other isoform, or with tags, fused parts or gaps mutant limits assumed): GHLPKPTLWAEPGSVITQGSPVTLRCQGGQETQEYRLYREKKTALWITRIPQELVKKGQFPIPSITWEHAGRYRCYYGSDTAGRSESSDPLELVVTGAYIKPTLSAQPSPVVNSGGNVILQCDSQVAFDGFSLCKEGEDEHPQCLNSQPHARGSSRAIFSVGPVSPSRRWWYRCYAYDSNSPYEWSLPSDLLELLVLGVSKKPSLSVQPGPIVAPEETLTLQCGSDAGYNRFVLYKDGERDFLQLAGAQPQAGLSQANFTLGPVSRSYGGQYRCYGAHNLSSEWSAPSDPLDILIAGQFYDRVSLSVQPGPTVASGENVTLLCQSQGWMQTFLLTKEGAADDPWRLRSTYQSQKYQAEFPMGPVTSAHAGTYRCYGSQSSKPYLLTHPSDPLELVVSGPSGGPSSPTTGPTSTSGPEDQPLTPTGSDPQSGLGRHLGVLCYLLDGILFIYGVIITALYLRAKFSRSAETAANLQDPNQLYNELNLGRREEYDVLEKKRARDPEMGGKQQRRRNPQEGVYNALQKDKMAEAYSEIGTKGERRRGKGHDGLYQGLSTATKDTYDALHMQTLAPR

[7] = molecular target: T6, recombinant human ILT2-Fc conjugated with biotin (human, UniProt Q8NHL6 24-458, limits assumed, conjugated with biotin (sites not given)); assay: flow cytometry blocking assay: ILT2-biotin binding to cells expressing HLA-G
T6 construct: It is written here as ILT2 then Fc; also called ILT2-biotin; biotinylated ILT2; not shown: Fc portion of human IgG1
T6 sequence (Q8NHL6 24-458 limits assumed): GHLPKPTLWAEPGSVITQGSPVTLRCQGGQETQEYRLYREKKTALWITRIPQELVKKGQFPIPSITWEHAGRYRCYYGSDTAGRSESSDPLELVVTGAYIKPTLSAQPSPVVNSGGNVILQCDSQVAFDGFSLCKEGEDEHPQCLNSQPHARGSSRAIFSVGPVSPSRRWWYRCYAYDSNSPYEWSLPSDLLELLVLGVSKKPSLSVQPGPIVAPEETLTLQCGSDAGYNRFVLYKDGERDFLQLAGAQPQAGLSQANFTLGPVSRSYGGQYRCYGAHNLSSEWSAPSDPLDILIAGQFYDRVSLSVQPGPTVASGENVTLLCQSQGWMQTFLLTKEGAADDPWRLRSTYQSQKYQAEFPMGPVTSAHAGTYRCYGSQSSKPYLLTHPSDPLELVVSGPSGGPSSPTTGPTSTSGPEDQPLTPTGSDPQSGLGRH
Experimental: (§1) Flow cytometry blocking assay—Recombinant human ILT2 protein fused with the Fc portion of human IgG1 at the N terminal was conjugated with biotin (Innova bioscience). A total of 5×10⁵ A375/HLA-G1 cells were incubated in a volume of 100 μL in the presence of anti-ILT2 clone #1 or isotype matched control mAb and ILT2-Fc conjugated with biotin (10 μg/mL) for 30 minutes at room temperature. After several washing steps, streptavidin-PE was added at a final concentration of 0.2 μg/mL and incubated for 30 min on ice followed by FACS analysis.
(§2) The ability of the generated anti-ILT2 antibodies to block the interaction between HLA-G and ILT2 was tested using four different assays. First, a blocking flow cytometry assay was performed. HLA-G transfected A375 cells were incubated with biotinylated ILT2 in the presence of the antibodies of the invention and a positive control antibody. The commercially available anti-ILT2 antibody GHI/75 (BioLegend, cat #333704) was used as the positive control. The binding of ILT2-biotin to the cells was determined using Streptavidin-PE by flow cytometry analysis (FIG. 8A). The percent of blocking was determined by normalizing to a negative control (ILT2 binding in the presence of control IgG). […] The percentage of blocking was calculated at various concentrations of antibody (FIG. 8C).

[8] = molecular target: T6, recombinant human ILT2-Fc conjugated …; assay: as above; remark: listed apart in the source
Experimental: as §1, §2

[9] = molecular target: T1, PIRB; assay: binding ELISA, column PIRB
[10] = molecular target: T3, ILT6; assay: binding ELISA, column hILT6-His
[11] = molecular target: T4, LILRA1; assay: binding ELISA, column hLILRA1-His
[12] = molecular target: T2, recombinant ILT2; assay: competition ELISA on ILT2: biotinylated 15G8 at 1 µg/ml as the labelled competitor, unbiotinylated 15G8 varied
Experimental: This raises the question of the epitope of GHI/75 and other commercial antibodies. Though the epitopes of these antibodies are not published a competition ELISA assay was performed to see if 15G8 and GHI/75 and HP-F1 could bind ILT2 at the same time. Biotinylated 15G8 antibody was used at a constant concentration (1 μg/ml) in an ILT2 binding ELISA. GHI/75 and HP-F1 were added in increasing concentrations and competition was assessed. Regardless of the amount of these two antibodies added, neither one competed with 15G8 for binding to ILT2 (FIG. 19). In contrast, when naked (unbiotinylated) 15G8 was added, the binding decreased in a dose dependent manner as expected. […] This makes 15G8 the first anti-ILT2 antibody ever identified to bind this epitope, to specifically block interaction with B2M and to be able to simultaneously activate/recruit T cells, NK cells and macrophages/dendritic cells against cancer.

Negative
ELISA (OD) [1]: 0.0575 OD
ELISA (OD) [2]: 0.05 OD
ELISA (OD) [3]: 0.071 OD
ELISA (OD) [4]: 0.13 OD

GHI/75 commercial mouse anti-human ILT2 antibody (BioLegend, Cat. No. 333704)
ELISA (OD) [5]: 2.45 OD

B1: chimeric 15G8 (antibody, V domains shown)
VH: DVQLQGSGPGLVKPSQSLSLTCSVTGYSITSGYYWNWIRQFPGNKLEWMGYISYDGSNNYNPSLKNRISITRDTSKNQFFLKLNSVTSEDTATYYCAHGYSYYYAMDCWGQGTSVTVSS
VL: DIQMTQTTSSLSASLGDRVTISCRTSQDISNYLNWYQQKPDGTVKLLISYTSRLHSGVPSRFSGSGSGTDYSLTISNLEQEDIATYFCQQGNTLPTFGSGTKLEIK
notes: Constant regions not described; also called chimeric murine 15G8
EC50 (read off the curve) [6]: ~0.5 µg/mL
IC50 (read off the curve) [7]: ~0.2 µg/mL

B2: humanized 15G8 (alanine variant) (antibody, V domains shown)
VH: DVQLQGSGPGLVKPSETLSLTCSVTGYSITSGYYWNWIRQFPGKKLEWMGYISYDGSNNYNPSLKNRITISRDTSKNQFSLKLNSVTAADTATYYCAHGYSYYYAMDAWGQGTSVTVSS
VL: DIQMTQSPSSLSASVGDRVTITCRTSQDISNYLNWYQQKPGKAVKLLISYTSRLHSGVPSRFSGSGSGTDYTLTISSLQPEDFATYYCQQGNTLPTFGQGTKLEIK
notes: also called 15G8 humanized antibody; humanized antibody 15G8
EC50 (read off the curve) [6]: ~0.5 µg/mL
IC50 (read off the curve) [8]: ~0.3 µg/mL
IC50 (read off the curve) [7]: ~0.2 µg/mL

B3: 15G8 (original hybridoma-derived murine anti-ILT2 antibody) (antibody, V domains shown)
VH: DVQLQGSGPGLVKPSQSLSLTCSVTGYSITSGYYWNWIRQFPGNKLEWMGYISYDGSNNYNPSLKNRISITRDTSKNQFFLKLNSVTSEDTATYYCAHGYSYYYAMDCWGQGTSVTVSS
VL: DIQMTQTTSSLSASLGDRVTISCRTSQDISNYLNWYQQKPDGTVKLLISYTSRLHSGVPSRFSGSGSGTDYSLTISNLEQEDIATYFCQQGNTLPTFGSGTKLEIK
notes: also called 15G8 antibody
binding result [9]: no binding
binding result [10]: no binding
binding result [11]: no binding
IC50 (read off the curve) [12]: ~3 µg/mL

Source: US20210277112A1 (BIOND BIOLOGICS, published 2021)
